Test results taken from patent publication US20120135923A1, “Use of Melanocortins to Treat Dyslipidemia” (IPSEN PHARMA, S.A.S., priority 2009, published 2012).
Bridge positions count the residues as written; N and C are the ends. Square brackets hold non-standard residues; d marks the D form. Ends that are not written are not given here. hArg = N=C(N)NCCCC[C@H](N)C(=O)O; Pen = CC(C)(S)[C@H](N)C(=O)O; Nle = CCCC[C@H](N)C(=O)O; GABA = NCCCC(=O)O; βAla = NCCC(=O)O

B1: D-Phe-c(Cys-His-D-Phe-hArg-Trp-β-Ala-D-Cys)-Thr-NH2 (peptide)
peptide: [dF]CH[dF][hArg]W[βAla][dC]T-NH2
modifications: disulfide 2-8; N-terminus assumed
SMILES: C[C@@H](O)[C@H](NC(=O)[C@H]1CSSC[C@H](NC(=O)[C@H](N)Cc2ccccc2)C(=O)N[C@@H](Cc2c[nH]cn2)C(=O)N[C@H](Cc2ccccc2)C(=O)N[C@@H](CCCCNC(=N)N)C(=O)N[C@@H](Cc2c[nH]c3ccccc23)C(=O)NCCC(=O)N1)C(N)=O
B2: Ac-Nle-c(Cys-His-D-Phe-Arg-Trp-Gaba-Pen)-NH2 (peptide)
peptide: Ac-[Nle]CH[dF]RW[GABA][Pen]-NH2
modifications: disulfide 2-8
B3: c[Hydantoin(C(O)-(Gly-Cys))-Glu-His-D-Phe-Arg-Trp-Cys]-NH2 (peptide)
peptide: GCEH[dF]RWC-NH2
modifications: disulfide 2-8; also: residues 1-2 joined in a hydantoin ring (C(O))
B4: Hydantoin(C(O)-(Arg-Gly))-c(Cys-D-Ala-His-D-2-Nal-Arg-Trp-Cys)-NH2 (peptide)
peptide: RGCAHXRWC
modifications: residues 1-2 joined in a hydantoin ring (C(O)); D-Ala4; X6=D-2-Nal; Cys3-Cys9 disulfide; C-terminal amide
B5: Ac-Nle-c(Cys-D-Leu-His-D-Phe-Arg-Trp-Cys)-NH2 (peptide)
peptide: Ac-[Nle]C[dL]H[dF]RWC-NH2
modifications: disulfide 2-8
SMILES: CCCC[C@H](NC(C)=O)C(=O)N[C@H]1CSSC[C@@H](C(N)=O)NC(=O)[C@H](Cc2c[nH]c3ccccc23)NC(=O)[C@H](CCCNC(=N)N)NC(=O)[C@@H](Cc2ccccc2)NC(=O)[C@H](Cc2c[nH]cn2)NC(=O)[C@@H](CC(C)C)NC1=O
B6: D-Phe-c(Cys-His-D-(Et)Tyr-Arg-Trp-β-Ala-D-Cys)-Thr-NH2 (peptide)
peptide: [dF]CH[d(Et)Tyr]RW[βAla][dC]T-NH2
modifications: disulfide 2-8
B7: D-Phe-c(Cys-His-D-(Et)Tyr-hArg-Trp-β-Ala-D-Cys)-Thr-NH2 (peptide)
peptide: [dF]CH[d(Et)Tyr][hArg]W[βAla][dC]T-NH2
modifications: disulfide 2-8
B8: Ac-Arg-c(Cys-His-D-Phe-Arg-Trp-Gaba-Pen)-NH2 (peptide)
peptide: Ac-RCH[dF]RW[GABA][Pen]-NH2
modifications: disulfide 2-8
SMILES: CC(=O)N[C@@H](CCCNC(=N)N)C(=O)N[C@H]1CSSC(C)(C)[C@@H](C(N)=O)NC(=O)CCCNC(=O)[C@H](Cc2c[nH]c3ccccc23)NC(=O)[C@H](CCCNC(=N)N)NC(=O)[C@@H](Cc2ccccc2)NC(=O)[C@H](Cc2c[nH]cn2)NC1=O
B9: Nle-c(Cys-His-D-Phe-Arg-Trp-Gaba-Cys)-NH2 (peptide)
peptide: [Nle]CH[dF]RW[GABA]C-NH2
modifications: disulfide 2-8
B10: Ac-c(Cys-Glu-His-D-2-Nal-Arg-2-Nal-Ala-Cys)-Pro-Pro-Lys-Asp-β-Ala-Tyr-Gly-Arg-Lys-Lys-Arg-Arg-Gln-Arg-Arg-Arg-NH2 (peptide)
peptide: CEHXRXACPPKDXYGRKKRRQRRR
modifications: N-terminal acetyl; X4=D-2-Nal; X6=2-Nal; X13=β-Ala; Cys1-Cys8 disulfide; C-terminal amide
B11: Ac-D-Arg-c(Cys-His-D-Phe-Arg-Trp-Gaba-Pen)-NH2 (peptide)
peptide: Ac-[dR]CH[dF]RW[GABA][Pen]-NH2
modifications: disulfide 2-8
SMILES: CC(=O)N[C@H](CCCNC(=N)N)C(=O)N[C@H]1CSSC(C)(C)[C@@H](C(N)=O)NC(=O)CCCNC(=O)[C@H](Cc2c[nH]c3ccccc23)NC(=O)[C@H](CCCNC(=N)N)NC(=O)[C@@H](Cc2ccccc2)NC(=O)[C@H](Cc2c[nH]cn2)NC1=O

biological target: hMC4-R (human) (UniProt P32245); assay: competition with [125I]-NDP-α-MSH, CHO-K1 membranes
Sequence (P32245 whole entry): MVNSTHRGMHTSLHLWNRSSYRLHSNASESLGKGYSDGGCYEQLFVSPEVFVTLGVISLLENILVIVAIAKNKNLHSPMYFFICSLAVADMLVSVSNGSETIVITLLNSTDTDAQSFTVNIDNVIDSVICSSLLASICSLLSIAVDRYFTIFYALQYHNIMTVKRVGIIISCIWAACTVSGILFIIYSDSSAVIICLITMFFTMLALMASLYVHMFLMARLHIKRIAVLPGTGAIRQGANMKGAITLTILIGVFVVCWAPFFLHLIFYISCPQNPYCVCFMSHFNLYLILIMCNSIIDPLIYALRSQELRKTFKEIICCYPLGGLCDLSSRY

Row | Binder | Ki [nM]
1 | B1 | 10.3

biological target: hMC1-R (human) (UniProt Q01726); assay: as above
Sequence (Q01726 whole entry): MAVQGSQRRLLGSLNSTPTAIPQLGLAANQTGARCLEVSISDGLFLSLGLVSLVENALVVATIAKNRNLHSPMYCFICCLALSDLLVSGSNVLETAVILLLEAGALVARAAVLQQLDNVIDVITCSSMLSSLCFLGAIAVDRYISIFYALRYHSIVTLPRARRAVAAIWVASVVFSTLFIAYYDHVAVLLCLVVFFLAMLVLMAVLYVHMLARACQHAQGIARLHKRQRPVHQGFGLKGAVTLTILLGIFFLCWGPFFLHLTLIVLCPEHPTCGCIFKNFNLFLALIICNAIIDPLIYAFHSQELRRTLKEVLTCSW

Row | Binder | Ki [nM]
2 | B1 | 0.442

biological target: hMC5-R (human) (UniProt P33032); assay: as above
Sequence (P33032 whole entry): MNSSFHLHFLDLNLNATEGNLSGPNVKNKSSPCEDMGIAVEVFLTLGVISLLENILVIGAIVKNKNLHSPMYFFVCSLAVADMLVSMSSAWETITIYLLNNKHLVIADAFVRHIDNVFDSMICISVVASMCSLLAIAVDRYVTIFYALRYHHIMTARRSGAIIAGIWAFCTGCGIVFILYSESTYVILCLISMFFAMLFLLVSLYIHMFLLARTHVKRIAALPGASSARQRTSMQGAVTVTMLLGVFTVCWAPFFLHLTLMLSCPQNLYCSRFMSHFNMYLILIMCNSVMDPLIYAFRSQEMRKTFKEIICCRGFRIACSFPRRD

Row | Binder | Ki [nM]
3 | B1 | 521

biological target: hMC3-R (human) (UniProt P41968); assay: as above
Sequence (P41968 whole entry): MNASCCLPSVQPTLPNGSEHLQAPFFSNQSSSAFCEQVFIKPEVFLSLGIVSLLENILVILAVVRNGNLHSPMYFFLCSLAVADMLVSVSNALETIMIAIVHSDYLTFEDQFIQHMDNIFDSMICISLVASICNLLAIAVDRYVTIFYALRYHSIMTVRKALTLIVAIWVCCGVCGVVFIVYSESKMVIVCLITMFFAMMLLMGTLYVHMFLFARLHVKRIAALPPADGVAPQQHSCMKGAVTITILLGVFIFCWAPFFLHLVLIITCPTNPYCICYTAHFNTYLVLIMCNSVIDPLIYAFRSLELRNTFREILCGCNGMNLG

Row | Binder | Ki [nM]
4 | B1 | 123

biological target: hMC4-R (human) (UniProt P32245); assay: cell-based or functional assay

Row | Binder | cAMP EC50 [nM] | cAMP Kb
5 | B2 | 0.028 | –
6 | B3 | 0.576 | –
7 | B4 | 21.2 | –
8 | B5 | 0.0915 | –
9 | B6 | 0.11 | –
10 | B7 | 5380 | –
11 | B8 | 0.719 | –
12 | B9 | 0.021 | –
13 | B10 | – | 7.37
14 | B11 | 0.959 | –

biological target: hMC1-R (human) (UniProt Q01726); assay: cell-based or functional assay

Row | Binder | cAMP EC50
15 | B2 | 0.28 nM
16 | B3 | 14.5 nM
17 | B4 | 96.6 nM
18 | B5 | 3.24 nM
19 | B6 | 0.35 nM
20 | B7 | 0.345 nM
21 | B8 | 4.23 nM
22 | B9 | 0.37 nM
23 | B10 | 29.7
24 | B11 | 8.43 nM

biological target: hMC5-R (human) (UniProt P33032); assay: cell-based or functional assay

Row | Binder | cAMP EC50 [nM]
25 | B2 | 3.9
26 | B3 | 1780
27 | B4 | 103
28 | B5 | 78.5
29 | B6 | 0.37
30 | B7 | 2.38
31 | B8 | 23.2
32 | B9 | 1.7
33 | B10 | 82.9
34 | B11 | 2140

biological target: hMC3-R (human) (UniProt P41968); assay: cell-based or functional assay

Row | Binder | cAMP EC50 [nM] | cAMP Kb
35 | B2 | 0.24 | –
36 | B3 | 21.8 | –
37 | B4 | 13.1 | –
38 | B5 | 0.465 | –
39 | B6 | 1.1 | –
40 | B7 | 2.71 | –
41 | B8 | 8.09 | –
42 | B9 | 0.1 | –
43 | B10 | – | 25.6
44 | B11 | 32.4 | –

biological target: hMC1-R (human) (UniProt Q01726); assay: ratio Ki hMC1-R / Ki hMC4-R, same assay

Row | Binder | Ki hMC1-R/MC4-R
45 | B1 | 0.04
